Experimental data: patent publication US10584350B2, “Structurally modified COI1” (Board of Trustees of Michigan State University, priority 2016, dated 2020)

Assays:
[1] = test system: COI1-JAZ9 interaction; conditions: Y2H; Thines et al., Melotto et al.; cited from earlier work
[2] = test system: root growth; assay: Root growth inhibition assays; assay type: in vivo, Arabidopsis
Method: Col-0, segregating COI1-30, transgenic COI1WT, and COI1A384V seeds were surface-sterilized, cold-stratified, and germinated on half-strength MS agar media containing MeJA, COR, or DMSO at the indicated concentrations. Seedlings were grown under long-day light conditions (16-h light at 100 μE·m^2·s, and 8-h dark) for 10-12 days before scanning images of roots. Root lengths were measured using ImageJ software (see website at rsbweb.nih.gov/ij/).

[3] = test system: JAZ9 gene expression; assay: qPCR of JA-responsive marker gene JAZ9; assay type: in vivo, Arabidopsis; conditions: 10 μM MeJA or 0.2 μM COR, 3 h
Method: Col-0 and transgenic seeds were germinated on half-strength MS medium. Five-day-old seedlings were transferred into liquid half-strength MS medium. Segregating coil-30 seeds were germinated on half-strength MS medium with 10 μM MeJA. and MeJA-resistant 5-d-old seedlings were transferred into liquid half-strength MS medium. Next, 10 μM MeJA (Sigma), 0.2 μM COR or 0.1% DMSO were applied to 12-d-old seedlings. Samples were collected after 3 h and total RNA was extracted using Qiagen RNeasy Mini kit (Qiagen). M-MLV Reverse transcriptase (Life Technologies) and SYBR Green master mix (Life Technologies) were used for reverse-transcription and real-time PCR. Primers used were: […]

[4] = test system: COI1-JAZ9 interaction; assay: Y2H assays on plates for protein-protein interaction; assay type: cell-based, Arabidopsis; conditions: 10 μM COR, yeast
[5] = test system: COI1-JAZ9 interaction; assay: Quantitative liquid Y2H assays (Beta-Glo, RLU); assay type: cell-based, Arabidopsis; conditions: liquid Y2H, yeast; for COR-dependent COI1-JAZ9 interaction: 1 μM COR; for JA-Ile-dependent COI1-JAZ9 interaction: 10 or 30 μM JA-Ile
Method: Yeast EGY48 strain carrying the p8Op:LacZ reporter plasmid was co-transformed with pGilda:COI1 (or COI1 mutants) and pB42AD:JAZ9 (or other JAZs) (Clontech). Colonies were selected on SD minimal plates (BD Biosciences) supplemented with the—uracil (U)/-tryptophan (W)/-histidine (H) amino acid drop out solution (Clontech). Yeast colonies were cultured overnight in liquid SD-UWH medium, harvested, washed twice in sterile water, and the absorbance (OD600) of the cultures was adjusted to 0.2 in liquid SD galactose/raffinose-UWH medium (BD Biosciences).
For liquid Y2H assays, cultures were supplemented with designated concentrations of JA-Ile (10 or 30 μM), COR (1 μM), or DMSO. After 16-h incubation with ligands, the liquid cultures were processed through the Beta-Glo Assay system (Promega) for detecting the β-galactosidase activity. […] Protein expression in yeast was detected using anti-LexA antibody (1:5,000; Upstate Biotechnology) for detection of COI1 expression from pGilda vector and anti-HA (1:5,000; Roche Life Science) antibody for detection of JAZ9 expression in pB42AD vector.

Molecule: CC/C=C\C[C@H]1C(=O)CC[C@@H]1CC(=O)O [JA, jasmonic acid]
- activity in yeast [1]: not active

Molecule: CC/C=C\CC1C(=O)CCC1CC(=O)OC (centres unmarked) [MeJA, methyl jasmonate]
- concentrations of comparable potency in inhibiting root growth ([2]; COI1A384V plants): 100 nM
- concentrations with equivalent effect on root growth inhibition ([2]; wild-type Col-0 plants): 10 µM
- induction of JAZ9 expression compared with that in COI1-30 plants ([3]; COI1A384V L1 line): 38 fold
- JAZ9 gene expression in response to treatment compared with Col-0 or COI1WT plants ([3]; COI1A384V lines): less affected
- JAZ9 gene expression after application ([3]; Col-0 and COI1WT plants): induced
- activity in yeast [1]: not active

B1: R409A: COI1 alanine substitution mutant at R409 (protein)
chain: MEDPDIKRCKLSCVATVDDVIEQVMTYITDPKDRDSASLVCRRWFKIDSETREHVTMALCYTATPDRLSRRFPNLRSLKLKGKPRAAMFNLIPENWGGYVTPWVTEISNNLRQLKSVHFRRMIVSDLDLDRLAKARADDLETLKLDKCSGFTTDGLLSIVTHCRKIKTLLMEESSFSEKDGKWLHELAQHNTSLEVLNFYMTEFAKISPKDLETIARNCRSLVSVKVGDFEILELVGFFKAAANLEEFCGGSLNEDIGMPEKYMNLVFPRKLCRLGLSYMGPNEMPILFPFAAQIRKLDLLYALLETEDHCTLIQKCPNLEVLETRNVIGDRGLEVLAQYCKQLKRLRIERGADEQGMEDEEGLVSQRGLIALAQGCQELEYMAVYVSDITNESLESIGTYLKNLCDFALVLLDREERITDLPLDNGVRSLLIGCKKLRRFAFYLRQGGLTDLGLSYIGQYSPNVRWMLLGYVGESDEGLMEFSRGCPNLQKLEMRGCCFSERAIAAAVTKLPSLRYLWVQGYRASMTGQDLMQMARPYWNIELIPSRRVPEVNQQGEIREMEHPAHILAYYSLAGQRTDCPTTVRVLKEPI
- COR-dependent COI1-JAZ9 interaction [4]: reduced
- COR-dependent COI1-JAZ9 interaction [5]: reduced
- JA-Ile-dependent COI1-JAZ9 interaction [5]: reduced

B2: A384N: COI1 substitution mutant at A384 (protein)
chain: MEDPDIKRCKLSCVATVDDVIEQVMTYITDPKDRDSASLVCRRWFKIDSETREHVTMALCYTATPDRLSRRFPNLRSLKLKGKPRAAMFNLIPENWGGYVTPWVTEISNNLRQLKSVHFRRMIVSDLDLDRLAKARADDLETLKLDKCSGFTTDGLLSIVTHCRKIKTLLMEESSFSEKDGKWLHELAQHNTSLEVLNFYMTEFAKISPKDLETIARNCRSLVSVKVGDFEILELVGFFKAAANLEEFCGGSLNEDIGMPEKYMNLVFPRKLCRLGLSYMGPNEMPILFPFAAQIRKLDLLYALLETEDHCTLIQKCPNLEVLETRNVIGDRGLEVLAQYCKQLKRLRIERGADEQGMEDEEGLVSQRGLIALAQGCQELEYMNVYVSDITNESLESIGTYLKNLCDFRLVLLDREERITDLPLDNGVRSLLIGCKKLRRFAFYLRQGGLTDLGLSYIGQYSPNVRWMLLGYVGESDEGLMEFSRGCPNLQKLEMRGCCFSERAIAAAVTKLPSLRYLWVQGYRASMTGQDLMQMARPYWNIELIPSRRVPEVNQQGEIREMEHPAHILAYYSLAGQRTDCPTTVRVLKEPI
- COR-dependent COI1-JAZ9 interaction [5]: completely disrupted
- JA-Ile-dependent COI1-JAZ9 interaction [5]: completely disrupted

B3: R496A: COI1 alanine substitution mutant at R496 (protein)
chain: MEDPDIKRCKLSCVATVDDVIEQVMTYITDPKDRDSASLVCRRWFKIDSETREHVTMALCYTATPDRLSRRFPNLRSLKLKGKPRAAMFNLIPENWGGYVTPWVTEISNNLRQLKSVHFRRMIVSDLDLDRLAKARADDLETLKLDKCSGFTTDGLLSIVTHCRKIKTLLMEESSFSEKDGKWLHELAQHNTSLEVLNFYMTEFAKISPKDLETIARNCRSLVSVKVGDFEILELVGFFKAAANLEEFCGGSLNEDIGMPEKYMNLVFPRKLCRLGLSYMGPNEMPILFPFAAQIRKLDLLYALLETEDHCTLIQKCPNLEVLETRNVIGDRGLEVLAQYCKQLKRLRIERGADEQGMEDEEGLVSQRGLIALAQGCQELEYMAVYVSDITNESLESIGTYLKNLCDFRLVLLDREERITDLPLDNGVRSLLIGCKKLRRFAFYLRQGGLTDLGLSYIGQYSPNVRWMLLGYVGESDEGLMEFSRGCPNLQKLEMAGCCFSERAIAAAVTKLPSLRYLWVQGYRASMTGQDLMQMARPYWNIELIPSRRVPEVNQQGEIREMEHPAHILAYYSLAGQRTDCPTTVRVLKEPI
- COR-dependent COI1-JAZ9 interaction [4]: reduced
- differential effect on JA-Ile-dependent vs COR-dependent COI1-JAZ9 interaction [5]: affect JAIle-dependent interaction more than COR-dependent interaction

B4: A384T: COI1 substitution mutant at A384 (protein)
chain: MEDPDIKRCKLSCVATVDDVIEQVMTYITDPKDRDSASLVCRRWFKIDSETREHVTMALCYTATPDRLSRRFPNLRSLKLKGKPRAAMFNLIPENWGGYVTPWVTEISNNLRQLKSVHFRRMIVSDLDLDRLAKARADDLETLKLDKCSGFTTDGLLSIVTHCRKIKTLLMEESSFSEKDGKWLHELAQHNTSLEVLNFYMTEFAKISPKDLETIARNCRSLVSVKVGDFEILELVGFFKAAANLEEFCGGSLNEDIGMPEKYMNLVFPRKLCRLGLSYMGPNEMPILFPFAAQIRKLDLLYALLETEDHCTLIQKCPNLEVLETRNVIGDRGLEVLAQYCKQLKRLRIERGADEQGMEDEEGLVSQRGLIALAQGCQELEYMTVYVSDITNESLESIGTYLKNLCDFRLVLLDREERITDLPLDNGVRSLLIGCKKLRRFAFYLRQGGLTDLGLSYIGQYSPNVRWMLLGYVGESDEGLMEFSRGCPNLQKLEMRGCCFSERAIAAAVTKLPSLRYLWVQGYRASMTGQDLMQMARPYWNIELIPSRRVPEVNQQGEIREMEHPAHILAYYSLAGQRTDCPTTVRVLKEPI
- COR-dependent COI1-JAZ9 interaction [5]: completely disrupted
- JA-Ile-dependent COI1-JAZ9 interaction [5]: completely disrupted

B5: A384P: COI1 substitution mutant at A384 (protein)
chain: MEDPDIKRCKLSCVATVDDVIEQVMTYITDPKDRDSASLVCRRWFKIDSETREHVTMALCYTATPDRLSRRFPNLRSLKLKGKPRAAMFNLIPENWGGYVTPWVTEISNNLRQLKSVHFRRMIVSDLDLDRLAKARADDLETLKLDKCSGFTTDGLLSIVTHCRKIKTLLMEESSFSEKDGKWLHELAQHNTSLEVLNFYMTEFAKISPKDLETIARNCRSLVSVKVGDFEILELVGFFKAAANLEEFCGGSLNEDIGMPEKYMNLVFPRKLCRLGLSYMGPNEMPILFPFAAQIRKLDLLYALLETEDHCTLIQKCPNLEVLETRNVIGDRGLEVLAQYCKQLKRLRIERGADEQGMEDEEGLVSQRGLIALAQGCQELEYMPVYVSDITNESLESIGTYLKNLCDFRLVLLDREERITDLPLDNGVRSLLIGCKKLRRFAFYLRQGGLTDLGLSYIGQYSPNVRWMLLGYVGESDEGLMEFSRGCPNLQKLEMRGCCFSERAIAAAVTKLPSLRYLWVQGYRASMTGQDLMQMARPYWNIELIPSRRVPEVNQQGEIREMEHPAHILAYYSLAGQRTDCPTTVRVLKEPI
- COR-dependent COI1-JAZ9 interaction [5]: completely disrupted
- JA-Ile-dependent COI1-JAZ9 interaction [5]: completely disrupted

B6: A384L: COI1 substitution mutant at A384 (protein)
chain: MEDPDIKRCKLSCVATVDDVIEQVMTYITDPKDRDSASLVCRRWFKIDSETREHVTMALCYTATPDRLSRRFPNLRSLKLKGKPRAAMFNLIPENWGGYVTPWVTEISNNLRQLKSVHFRRMIVSDLDLDRLAKARADDLETLKLDKCSGFTTDGLLSIVTHCRKIKTLLMEESSFSEKDGKWLHELAQHNTSLEVLNFYMTEFAKISPKDLETIARNCRSLVSVKVGDFEILELVGFFKAAANLEEFCGGSLNEDIGMPEKYMNLVFPRKLCRLGLSYMGPNEMPILFPFAAQIRKLDLLYALLETEDHCTLIQKCPNLEVLETRNVIGDRGLEVLAQYCKQLKRLRIERGADEQGMEDEEGLVSQRGLIALAQGCQELEYMLVYVSDITNESLESIGTYLKNLCDFRLVLLDREERITDLPLDNGVRSLLIGCKKLRRFAFYLRQGGLTDLGLSYIGQYSPNVRWMLLGYVGESDEGLMEFSRGCPNLQKLEMRGCCFSERAIAAAVTKLPSLRYLWVQGYRASMTGQDLMQMARPYWNIELIPSRRVPEVNQQGEIREMEHPAHILAYYSLAGQRTDCPTTVRVLKEPI
- COR-dependent COI1-JAZ9 interaction [5]: completely disrupted
- JA-Ile-dependent COI1-JAZ9 interaction [5]: completely disrupted
